{
  "source": "paper PMC3898841",
  "about": "“Identification of a Major Determinant for Serine-Threonine Kinase Phosphoacceptor Specificity” (Molecular Cell, 2014)",
  "binders": {"B1": {"name": "PAKtide-S (peptide)", "peptide": "RRRRSWY", "notes": "consensus peptide substrate of PAK4, phosphoacceptor Ser (P0); also called PAK4 consensus peptide substrate with Ser phosphoacceptor (short form used for crystals); source: synthetic peptide"}, "B2": {"name": "PAKtide-S(L) (peptide)", "peptide": "RRRRRSWYFDG", "notes": "longer consensus peptide substrate of PAK4, phosphoacceptor Ser (P0); also called longer version of the consensus peptide; source: synthetic peptide"}},
  "key": {"[1]": {"target": "T1, PAK4 F461V catalytic domain (human, UniProt O96013 286-591, F461V, phosphoserine at 474 (activation loop, as seen in the structures))", "T1 construct": "residues built in the models: 300-589; also called F461V mutant PAK4", "T1 sequence (O96013 286-591 F461V)": "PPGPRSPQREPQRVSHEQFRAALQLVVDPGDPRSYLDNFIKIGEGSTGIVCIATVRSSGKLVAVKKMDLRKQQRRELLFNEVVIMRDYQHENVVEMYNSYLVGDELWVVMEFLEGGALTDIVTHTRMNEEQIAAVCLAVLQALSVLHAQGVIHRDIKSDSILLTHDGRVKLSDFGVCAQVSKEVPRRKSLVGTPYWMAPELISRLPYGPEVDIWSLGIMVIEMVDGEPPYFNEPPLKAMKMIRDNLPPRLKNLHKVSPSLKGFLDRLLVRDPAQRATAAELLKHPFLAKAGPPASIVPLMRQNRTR", "assay": "crystal structure; PAK4 F461V cocrystals with peptide, hanging drop vapor diffusion, 0.1 M Tris-HCl (pH 7.5), 1.5-2.0 M NaOAc at room temperature", "settings": "both partners purified"}, "WT PAK4 catalytic domain [2]": {"target": "T2, WT PAK4 catalytic domain (human, UniProt O96013 286-591, phosphoserine at 474 (activation loop, as seen in the structures))", "T2 construct": "residues built in the models: 300-589 (4JDH, 4JDI) and 291-591 (2Q0N); The construct of PDB 2Q0N may have other limits than that of 4JDH/4JDI", "T2 sequence (O96013 286-591)": "as the sequence (O96013 286-591 F461V) above, with V176F counted along it", "assay": "crystal structure; WT PAK4 crystals grown by hanging drop vapor diffusion against 0.1 M Tris-HCl (pH 7.5), 1.5-2.0 M NaOAc at room temperature and soaked with peptides", "settings": "both partners purified"}, "MST4 V165F (human)": {"target": "MST4 V165F (human) (UniProt Q9P289)", "sequence (Q9P289 whole entry V165F)": "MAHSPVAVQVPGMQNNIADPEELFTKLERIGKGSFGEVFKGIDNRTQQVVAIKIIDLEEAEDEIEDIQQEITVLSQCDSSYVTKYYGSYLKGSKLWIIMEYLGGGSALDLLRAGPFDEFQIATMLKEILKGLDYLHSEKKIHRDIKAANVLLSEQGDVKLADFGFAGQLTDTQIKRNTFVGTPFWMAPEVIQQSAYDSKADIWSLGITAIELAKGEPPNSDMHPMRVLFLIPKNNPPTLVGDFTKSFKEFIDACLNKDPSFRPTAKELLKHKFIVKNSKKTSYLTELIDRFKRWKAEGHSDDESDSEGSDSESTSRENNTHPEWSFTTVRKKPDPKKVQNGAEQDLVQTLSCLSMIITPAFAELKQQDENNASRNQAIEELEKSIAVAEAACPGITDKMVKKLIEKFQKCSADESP"}, "WT MST4 (human)": {"target": "WT MST4 (human) (UniProt Q9P289)", "sequence (Q9P289 whole entry)": "as the sequence (Q9P289 whole entry V165F) above, with F165V counted along it"}, "WT PAK4 catalytic domain [3]": {"target": "T2, WT PAK4 catalytic domain"}, "[4]": {"target": "T1, PAK4 F461V catalytic domain"}, "WT PAK4 catalytic domain [5]": {"target": "T2, WT PAK4 catalytic domain", "assay": "crystal structure; cocrystals of PAK4 with PAKtide-S(L), 1.7 M ammonium sulfate, 15% PEG400, 0.1 M Tris-HCl (pH 8.0)", "settings": "both partners purified"}},
  "data": [
    {"binder": "B1", "values": [
      {"measurement": "binding result", "setting": "[1]", "value": "binds"},
      {"measurement": "binding result", "setting": "WT PAK4 catalytic domain [2]", "value": "binds"}
    ]},
    {"binder": "NKGYNTLRRKK", "note": "[MST4 substrate peptide … (X = Thr)]", "values": [
      {"measurement": "Km for phosphorylation of the peptide (radiolabel filter binding kinase assay)", "setting": "MST4 V165F (human)", "value": 390, "unit": "µM"},
      {"measurement": "Km for phosphorylation of the peptide (radiolabel filter binding kinase assay)", "setting": "WT MST4 (human)", "value": 14, "unit": "µM"}
    ]},
    {"binder": "GGRRRRRSWYFGGGK", "note": "[PAK4 substrate peptide … (X = Ser)]", "values": [
      {"measurement": "Km for phosphorylation of the peptide (radiolabel filter binding kinase assay)", "setting": "WT PAK4 catalytic domain [3]", "value": 280, "unit": "µM"},
      {"measurement": "Km for phosphorylation of the peptide (radiolabel filter binding kinase assay)", "setting": "[4]", "value": 129, "unit": "µM"}
    ]},
    {"binder": "NKGYNSLRRKK", "note": "[MST4 substrate peptide … (X = Ser)]", "values": [
      {"measurement": "Km for phosphorylation of the peptide (radiolabel filter binding kinase assay)", "setting": "MST4 V165F (human)", "value": 360, "unit": "µM"},
      {"measurement": "Km for phosphorylation of the peptide (radiolabel filter binding kinase assay)", "setting": "WT MST4 (human)", "value": 21.7, "unit": "µM"}
    ]},
    {"binder": "B2", "values": [
      {"measurement": "binding result", "setting": "WT PAK4 catalytic domain [5]", "value": "binds"}
    ]}
  ]
}
